One series has as its target His-BARD1 1-320 (UniProt Q99728).
The target in another series is His-BARD1 14-189 (UniProt Q99728).
His-BARD1 14-189, sequence (Q99728 14-189): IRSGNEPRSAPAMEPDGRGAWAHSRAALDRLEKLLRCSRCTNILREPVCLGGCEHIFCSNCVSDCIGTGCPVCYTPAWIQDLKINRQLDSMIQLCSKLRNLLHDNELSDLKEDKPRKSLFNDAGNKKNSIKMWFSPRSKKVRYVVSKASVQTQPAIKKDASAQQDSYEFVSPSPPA

His-BARD1 1-320, sequence (Q99728 1-320): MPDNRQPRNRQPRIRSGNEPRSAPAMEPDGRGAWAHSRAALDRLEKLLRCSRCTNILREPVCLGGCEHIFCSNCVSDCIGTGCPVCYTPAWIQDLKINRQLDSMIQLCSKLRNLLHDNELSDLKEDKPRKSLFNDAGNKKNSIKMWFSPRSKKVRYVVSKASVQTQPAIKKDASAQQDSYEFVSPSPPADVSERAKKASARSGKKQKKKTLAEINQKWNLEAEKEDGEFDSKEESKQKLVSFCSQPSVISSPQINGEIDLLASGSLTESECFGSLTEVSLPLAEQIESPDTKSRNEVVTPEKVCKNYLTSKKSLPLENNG

Regarding HA-CDK1-cyclin B1, the “in vitro kinase assay ([gamma-32P]ATP, autoradiography)” value with His-BARD1 1-320 is “both His-BARD^14-180 and HA-BARD1^1-320 were phosphorylated in vitro with CDK2-cyclin E1 and CDK1-cyclinc B1”; in the series with His-BARD1 14-189, “both His-BARD^14-180 and HA-BARD1^1-320 were phosphorylated in vitro with CDK2-cyclin E1 and CDK1-cyclinc B1”.
In the case of CDK2-cyclin E1, the “in vitro kinase assay ([gamma-32P]ATP, autoradiography)” value in the series with His-BARD1 1-320 was “both His-BARD^14-180 and HA-BARD1^1-320 were phosphorylated in vitro with CDK2-cyclin E1 and CDK1-cyclinc B1”; in the series with His-BARD1 14-189 it was “both His-BARD^14-180 and HA-BARD1^1-320 were phosphorylated in vitro with CDK2-cyclin E1 and CDK1-cyclinc B1”.
